From the Human Domainome abundance scans (Beltran et al. 2025)
± gives the uncertainty stated by the source.

B1: Gamma-crystallin D, residues 90 to 170; numbered along this chain, P07320 (parent)
chain: IRLYEREDYRGQMIEFTEDCSCLQDRFRFNEIHSLNVLEGSWVLYELSNYRGRQYLLMPGDYRRYQDWGATNARVGSLRRV

Variants of: B1
Assay: abundance fitness (aPCA) (normalised: wild type 0, dead -1); higher = more abundant; growth selection in yeast, the domain comes from the species named
Details: Homo sapiens

Abundance fitness of substitutions, site by site:
E39: C -0.156 ± 0.12, A 0.074 ± 0.079, D -0.039 ± 0.17, F -0.262 ± 0.31, Q -0.084 ± 0.2, K -0.065 ± 0.14, R 0.016 ± 0.069, H 0.165 ± 0.24, G 0.084 ± 0.075, M -0.054 ± 0.18, I -0.03 ± 0.22, L -0.061 ± 0.079, W -0.176 ± 0.1, P -0.78 ± 0.18, S -0.024 ± 0.077, T 0.059 ± 0.11
W42: M -0.388 ± 0.099, L -0.201 ± 0.061, S -0.865 ± 0.1, G -1.1 ± 0.1, V 0.114 ± 0.069, R -0.994 ± 0.092, H -0.38 ± 0.15, Y 0.166 ± 0.13, P -0.923 ± 0.25, N -0.774 ± 0.28, D -1 ± 0.47, E -1.07 ± 0.25, F -0.105 ± 0.12, I -0.029 ± 0.2, A -0.554 ± 0.1, T -0.492 ± 0.15, Q -0.969 ± 0.37, C -0.272 ± 0.082
L56: N 0.022 ± 0.28, D 0.294 ± 0.2, K 0.035 ± 0.13, S 0.14 ± 0.071, C 0.048 ± 0.12, G 0.016 ± 0.062, V -0.027 ± 0.071, P 0.124 ± 0.092, W 0.017 ± 0.07, Y -0.207 ± 0.15, E -0.024 ± 0.13, A 0.056 ± 0.075, F 0.093 ± 0.17, Q -0.054 ± 0.15, M 0.279 ± 0.12, I 0.114 ± 0.15, R 0.086 ± 0.071, H 0.13 ± 0.091, T 0.129 ± 0.11
V37: S 0.137 ± 0.079, T 0.091 ± 0.1, H -0.086 ± 0.3, M -0.338 ± 0.16, G -0.218 ± 0.076, W -0.895 ± 0.15, Q -0.306 ± 0.15, L 0.096 ± 0.088, P 0.153 ± 0.099, K -0.7 ± 0.39, I 0.091 ± 0.19
G40: M -0.13 ± 0.12, D 0.011 ± 0.11, S -0.021 ± 0.083, E 0.076 ± 0.15, C -0.039 ± 0.17, V 0.025 ± 0.08, R -0.142 ± 0.066, N -0.228 ± 0.14, T -0.041 ± 0.11, P -0.077 ± 0.099, L -0.143 ± 0.066, Y -0.104 ± 0.33, H 0.132 ± 0.32, K -0.187 ± 0.11, F -0.031 ± 0.17, A -0.014 ± 0.08, Q -0.053 ± 0.059, I -0.113 ± 0.11
M58: C 0.074 ± 0.12, D 0.021 ± 0.13, A 0.032 ± 0.065
L57: A -0.071 ± 0.12, R -0.376 ± 0.11, W -0.623 ± 0.13, Y -0.13 ± 0.18, D -0.971 ± 0.39, M 0.029 ± 0.25, T -0.016 ± 0.17, H 0.049 ± 0.4, K -0.173 ± 0.3, C -0.029 ± 0.13, E -0.91 ± 0.19, F -0.194 ± 0.23
Y50: H -0.052 ± 0.3, D -0.693 ± 0.17, S -0.501 ± 0.13, I -0.658 ± 0.44, L -0.383 ± 0.075, W -0.283 ± 0.12, R -0.19 ± 0.081, N 0.003 ± 0.16, Q -0.197 ± 0.14, V -0.979 ± 0.19, A -0.493 ± 0.094, M -0.144 ± 0.14, K -0.234 ± 0.21, C -0.44 ± 0.24, G -0.231 ± 0.059
E46: S -0.113 ± 0.1, T -0.047 ± 0.099, P -0.199 ± 0.096, R -0.273 ± 0.068, W -0.783 ± 0.1, Y -0.626 ± 0.42, V -0.325 ± 0.082, M -0.095 ± 0.15, F -0.197 ± 0.17, H -0.161 ± 0.23, G -0.263 ± 0.068, N -0.343 ± 0.26, C -0.201 ± 0.1, A -0.083 ± 0.086, Q -0.012 ± 0.11
R53: K 0.038 ± 0.19, G 0.015 ± 0.064, P 0.039 ± 0.091, W -0.266 ± 0.11, Q 0.085 ± 0.12, S 0.059 ± 0.092, C -0.137 ± 0.15, E -0.046 ± 0.1, M -0.045 ± 0.099, I -0.158 ± 0.18, Y 0.026 ± 0.24, H 0.062 ± 0.25, V -0.056 ± 0.088, A 0.068 ± 0.12
L47: P -0.989 ± 0.18, F 0.008 ± 0.2, D 0.147 ± 0.14, S 0.074 ± 0.072, G -0.027 ± 0.069, R 0.055 ± 0.058, W 0.048 ± 0.074, V -0.142 ± 0.077, H -0.072 ± 0.21, Q 0.084 ± 0.13, M -0.162 ± 0.21, N -0.014 ± 0.49, I -0.16 ± 0.21, A -0.037 ± 0.12, E -0.12 ± 0.16, Y -0.183 ± 0.19, K -0.221 ± 0.38
S41: Q 0.022 ± 0.059, N -0.175 ± 0.23, V -0.138 ± 0.095, A -0.222 ± 0.079, Y -0.078 ± 0.098, M -0.285 ± 0.11, H -0.006 ± 0.17, R 0.021 ± 0.077, F -0.384 ± 0.14, K 0.045 ± 0.15, P -0.171 ± 0.097, L -0.363 ± 0.1, G 0.064 ± 0.062, D -0.007 ± 0.14, T -0.09 ± 0.088, W -0.207 ± 0.1, E 0.076 ± 0.12, I -0.161 ± 0.27
R51: I -0.321 ± 0.21, H -0.122 ± 0.28, S -0.039 ± 0.079, W -0.471 ± 0.12, G 0.064 ± 0.079, N 0.139 ± 0.21, K -0.037 ± 0.17, Y -0.108 ± 0.31, E 0.158 ± 0.14, V 0.025 ± 0.082, Q -0.132 ± 0.15, D -0.027 ± 0.19, F -0.147 ± 0.17, P -0.951 ± 0.19, C -0.023 ± 0.14, T 0.056 ± 0.12, A -0.024 ± 0.08, L 0.034 ± 0.075
Q54: A -0.119 ± 0.093, G -0.203 ± 0.12, T 0.035 ± 0.11, H -0.117 ± 0.14, M -0.261 ± 0.11, K -0.052 ± 0.13, S 0.013 ± 0.1, L -0.149 ± 0.11, W -0.39 ± 0.11, I -0.245 ± 0.17, V -0.193 ± 0.085, P -0.036 ± 0.094, R -0.066 ± 0.12, Y -0.119 ± 0.26, E 0.018 ± 0.14, C -0.206 ± 0.11, D 0.007 ± 0.19
Y55: S 0.126 ± 0.12, C -0.061 ± 0.5, R 0.014 ± 0.081, P -1.07 ± 0.17, H -0.018 ± 0.27, E 0.241 ± 0.1, K 0.087 ± 0.12, D -0.23 ± 0.18, T 0.187 ± 0.14, G 0.017 ± 0.066, W -0.001 ± 0.11, M -0.039 ± 0.18, V 0.082 ± 0.11, F -0.044 ± 0.18, I 0.298 ± 0.22, L 0.107 ± 0.082, Q -0.006 ± 0.14
L44: A 0.006 ± 0.12, I 0.048 ± 0.2, N -0.938 ± 0.4, F -0.021 ± 0.16, Q -0.563 ± 0.25, D -0.93 ± 0.2, C -0.093 ± 0.12, H -0.721 ± 0.26, W -0.414 ± 0.1, R -1.17 ± 0.18, Y -0.073 ± 0.14, V 0.035 ± 0.1, G -0.024 ± 0.057, P -1.04 ± 0.28, T -0.03 ± 0.12
V43: S -0.029 ± 0.081, P -0.844 ± 0.2, G -0.026 ± 0.064, W -0.028 ± 0.12, D -0.017 ± 0.17, Y -0.229 ± 0.18, M 0.079 ± 0.11, F -0.125 ± 0.14, H -0.129 ± 0.45, L -0.1 ± 0.12, E 0.204 ± 0.13, R 0.006 ± 0.067, T -0.113 ± 0.17, A -0.059 ± 0.11, K -0.148 ± 0.13, N -0.157 ± 0.28
N49: T -0.561 ± 0.19, R -0.107 ± 0.059, F -0.135 ± 0.19, Y -0.03 ± 0.19, L 0.045 ± 0.094, K -0.086 ± 0.18, E 0.054 ± 0.11, G -0.074 ± 0.059, P -0.182 ± 0.11, I -0.485 ± 0.21, M 0.008 ± 0.15, Q 0.015 ± 0.12, A -0.109 ± 0.076, S -0.09 ± 0.082
G52: K -0.849 ± 0.27, I -0.943 ± 0.32, C -0.421 ± 0.12, Q -0.599 ± 0.23, L -0.432 ± 0.1, R -0.51 ± 0.093, N -0.705 ± 0.31, F -0.583 ± 0.47, E -0.493 ± 0.073, M -0.57 ± 0.23, S -0.389 ± 0.08, V -0.919 ± 0.13, A -0.489 ± 0.072, T -1.07 ± 0.3, D -0.775 ± 0.25, W -0.697 ± 0.11, H -0.43 ± 0.19
S48: I -0.152 ± 0.15, T -0.134 ± 0.36, G -0.049 ± 0.065, D 0.138 ± 0.12, M -0.166 ± 0.15, L -0.204 ± 0.087, Q -0.191 ± 0.17, C 0.009 ± 0.1, E 0.208 ± 0.14, V -0.159 ± 0.078, F -0.124 ± 0.12, Y -0.194 ± 0.27, R -0.14 ± 0.073, K -0.017 ± 0.15
L38: I 0.007 ± 0.16, V -0.045 ± 0.083, P 0.012 ± 0.078, D 0.064 ± 0.12, A -0.066 ± 0.069, Q -0.007 ± 0.17, W 0.153 ± 0.097, S -0.065 ± 0.067, G 0.016 ± 0.057, M -0.035 ± 0.097, R 0.029 ± 0.073, T -0.055 ± 0.1, C -0.102 ± 0.1, H 0.024 ± 0.15, K -0.141 ± 0.22
Y45: R -0.439 ± 0.072, D -1.01 ± 0.24, C -0.273 ± 0.14, S -0.157 ± 0.089, V -0.88 ± 0.14, H -0.151 ± 0.19, L -0.708 ± 0.13, P -0.553 ± 0.15, A -0.347 ± 0.083, G -0.441 ± 0.061, N -0.507 ± 0.29, T -0.07 ± 0.097, Q -0.395 ± 0.19, E -1.04 ± 0.19, M -0.401 ± 0.13
